Laboratory results as given in patent US20140363495A1.

Columns and labels:
[1] = molecular target: HLA-A2 molecules on T2A2 cells (human); assay: flow cytometry, upregulation of HLA-A2 on T2A2 cells, peptide 12.5 µg/mL, negative control; conditions: remark: other sources report otherwise
[2] = molecular target: HLA-A2 molecules on T2A2 cells (human); assay: flow cytometry, upregulation of HLA-A2 on T2A2 cells, peptide 25 µg/mL, negative control; conditions: remark: other sources report otherwise

B1: CAP-7 (peptide)
peptide: HLFGYSWYK
[1]
  T2 Binding (MFI): 109 MFI
[2]
  T2A2 Binding (MFI): 83.8 MFI
